Source: patent publication US20200181261A1

Assays:
[1] = target: human CEACAM6, full-length, on cells (human) (UniProt P40199); test: FACS, 5 µg/ml, HPAFII cells
[2] = target: human CEACAM6, full-length, on cells (human) (UniProt P40199); test: FACS, 5 µg/ml, SW1116 cells
[3] = target: human CEACAM6, full-length, on cells (human) (UniProt P40199); test: FACS, 5 µg/ml, LoVo cells
[4] = target: human CEACAM6, full-length, on cells (human) (UniProt P40199); test: FACS, 5 µg/ml, RPMI-8226 cells
[5] = target: human CEACAM6, full-length, on cells (human) (UniProt P40199); test: FACS, 5 µg/ml, HCC2998 cells
[6] = target: human CEACAM6, full-length, on cells (human) (UniProt P40199); test: FACS, 5 µg/ml, HT29 cells
[7] = target: human CEACAM6, full-length, on cells (human) (UniProt P40199); test: FACS, 5 µg/ml, MDA-MB-361 cells
[8] = target: human CEACAM6, full-length, on cells (human) (UniProt P40199); test: FACS, transfected HeLa cells
[9] = target: human CEACAM6, full-length, on cells (human) (UniProt P40199); test: FACS, 5 µg/ml, NCI-H441 cells
[10] = target: human CEACAM6, full-length, on cells (human) (UniProt P40199); test: FACS, 5 µg/ml, SNU-1 cells
[11] = target: human CEACAM6, full-length, on cells (human) (UniProt P40199); test: FACS, 5 µg/ml, MCF7 cells
[12] = target: human CEACAM6, full-length, on cells (human) (UniProt P40199); test: FACS, 5 µg/ml, BT-474 cells
[13] = target: human CEACAM6, full-length, on cells (human) (UniProt P40199); test: FACS, 5 µg/ml, HPAC cells
[14] = target: human CEACAM6, full-length, on cells (human) (UniProt P40199); test: FACS, 5 µg/ml, KS cells
[15] = target: human CEACAM6, full-length, on cells (human) (UniProt P40199); test: FACS, 5 µg/ml, BxPc3 cells
[16] = target: human CEACAM6, full-length, on cells (human) (UniProt P40199); test: FACS, 5 µg/ml, MCF7/AdrVp cells
[17] = target: human CEACAM6, full-length, on cells (human) (UniProt P40199); test: FACS, 5 µg/ml, SNU-C1 cells
[18] = target: human CEACAM6, full-length, on cells (human) (UniProt P40199); test: FACS, 5 µg/ml, T-47D cells
[19] = target: human CEACAM6, full-length, on cells (human) (UniProt P40199); test: FACS, 5 µg/ml, Calu-3 cells
[20] = target: human CEACAM6, full-length, on cells (human) (UniProt P40199); test: FACS, 5 µg/ml, HCC827 cells
[21] = target: human CEACAM6, extracellular (mature form), R&D Systems 3934-CM (human) (UniProt P40199); test: SPR, antibody captured, antigen as analyte
[22] = target: human CEACAM6, full-length, on cells (human) (UniProt P40199); test: FACS, 5 µg/ml, DAN-G cells
[23] = target: human CEACAM6, full-length, on cells (human) (UniProt P40199); test: FACS, 5 µg/ml, NCI-H1993 cells
[24] = target: human CEACAM6, full-length, on cells (human) (UniProt P40199); test: FACS, 5 µg/ml, NCI-H1437 cells
[25] = target: human CEACAM6, full-length, on cells (human) (UniProt P40199); test: FACS, 5 µg/ml, KM-12 cells
[26] = target: human CEACAM6, full-length, on cells (human) (UniProt P40199); test: FACS, 5 µg/ml, AsPC-1 cells
[27] = target: human CEACAM6, full-length, on cells (human) (UniProt P40199); test: FACS, 5 µg/ml, CL-34 cells
[28] = target: human CEACAM6, full-length, on cells (human) (UniProt P40199); test: FACS, 5 µg/ml, HT55 cells
[29] = target: human CEACAM6, full-length, on cells (human) (UniProt P40199); test: FACS, 5 µg/ml, A549 cells
[30] = target: human CEACAM6, full-length, on cells (human) (UniProt P40199); test: FACS, 5 µg/ml, NCI-H2228 cells
[31] = target: human CEACAM6, full-length, on cells (human) (UniProt P40199); test: FACS, 5 µg/ml, WiDr cells
[32] = target: human CEACAM6, full-length, on cells (human) (UniProt P40199); test: FACS, 5 µg/ml, HCC-2935 cells
[33] = target: human CEACAM6, full-length, on cells (human) (UniProt P40199); test: FACS, 5 µg/ml, NCI-H1688 cells
[34] = target: human CEACAM6, full-length, on cells (human) (UniProt P40199); test: FACS, 5 µg/ml, ZR-75-1 cells

human CEACAM6, full-length, on cells (human), sequence (P40199 35-320 V239G): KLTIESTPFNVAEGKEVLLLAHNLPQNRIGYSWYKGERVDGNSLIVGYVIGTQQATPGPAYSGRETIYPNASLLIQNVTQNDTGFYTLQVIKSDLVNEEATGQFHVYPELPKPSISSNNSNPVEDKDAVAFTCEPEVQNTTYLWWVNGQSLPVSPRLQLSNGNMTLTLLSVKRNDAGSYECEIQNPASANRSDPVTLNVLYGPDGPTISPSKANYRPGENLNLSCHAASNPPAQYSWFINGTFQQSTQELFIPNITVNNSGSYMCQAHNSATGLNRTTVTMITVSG
human CEACAM6, extracellular (mature form), R&D Systems 3934-CM (human), sequence (P40199 other isoform, or with tags, fused parts or gaps limits assumed): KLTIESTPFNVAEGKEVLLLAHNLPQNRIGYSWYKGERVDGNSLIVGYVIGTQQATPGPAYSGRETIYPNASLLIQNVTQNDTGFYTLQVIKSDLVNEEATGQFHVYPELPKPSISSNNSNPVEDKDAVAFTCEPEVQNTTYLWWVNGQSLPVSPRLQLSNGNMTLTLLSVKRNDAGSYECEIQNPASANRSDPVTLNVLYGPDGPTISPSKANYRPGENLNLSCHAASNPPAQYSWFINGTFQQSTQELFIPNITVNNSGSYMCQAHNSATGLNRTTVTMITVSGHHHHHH

9A6 (mouse IgG1) (antibody)
100 to 1000: FACS median fluorescence (medianfluorescence) [3] | FACS median fluorescence (medianfluorescence) [5] | FACS median fluorescence (medianfluorescence) [6] | FACS median fluorescence (medianfluorescence) [9] | FACS median fluorescence (medianfluorescence) [17] | FACS median fluorescence (medianfluorescence) [20] | FACS median fluorescence (medianfluorescence) [25] | FACS median fluorescence (medianfluorescence) [30] | FACS median fluorescence (medianfluorescence) [31] | FACS median fluorescence (medianfluorescence) [34]
1000 to 10000: FACS median fluorescence (medianfluorescence) [1] | FACS median fluorescence (medianfluorescence) [2] | FACS median fluorescence (medianfluorescence) [7] | FACS median fluorescence (medianfluorescence) [8] | FACS median fluorescence (medianfluorescence) [10] | FACS median fluorescence (medianfluorescence) [12] | FACS median fluorescence (medianfluorescence) [14] | FACS median fluorescence (medianfluorescence) [15] | FACS median fluorescence (medianfluorescence) [23] | FACS median fluorescence (medianfluorescence) [24] | FACS median fluorescence (medianfluorescence) [26] | FACS median fluorescence (medianfluorescence) [28] | FACS median fluorescence (medianfluorescence) [29]
22 nM: Kd [21]
> 10000: FACS median fluorescence (medianfluorescence) [13] | FACS median fluorescence (medianfluorescence) [32]
10 to 100: FACS median fluorescence (medianfluorescence) [4] | FACS median fluorescence (medianfluorescence) [11] | FACS median fluorescence (medianfluorescence) [16] | FACS median fluorescence (medianfluorescence) [18] | FACS median fluorescence (medianfluorescence) [19] | FACS median fluorescence (medianfluorescence) [22] | FACS median fluorescence (medianfluorescence) [27] | FACS median fluorescence (medianfluorescence) [33]
